Reference: paper PMC5800811

B1: CD59: DMJ (protein)
parent chain: MGIQGGSVLFGLLLVLAVFCHSGHSLQCYNCPNPTADCKTAVNCSSDFDACLITKAGLQVYNKCWKFEHCNFNDVTTRLRENELTYYCCKKDLCNFNEQLENGGTSLSEKTVLLLVTPFLAAAWSLHP
B2: CD59: KIF (protein)
parent chain: B1 parent chain
B3: CD59: sgALG8 in MOGS-KO (protein)
parent chain: B1 parent chain
B4: CD59: sgALG6 in MOGS-KO (protein)
parent chain: B1 parent chain
B5: CD59: DNJ (protein)
parent chain: B1 parent chain
B6: CD59: GANAB-KO (protein)
parent chain: B1 parent chain

What was measured:
[1] = 10-11 d drug culture, PIPLC, anti-CD59 flow cytometry; conditions: glycan changed form; control: untreated HEK293FF6 cells
[2] = PIPLC treatment, anti-CD59 flow cytometry; conditions: glycan changed form

Row | Protein | other: PIPLC resistance of surface CD59 (GPI-inositol acylation) [1] | other: PIPLC resistance of surface CD59 (GPI-inositol acylation) ([2]; control: MOGS-KO cells) | also measured
1 | B1 | no change |  | 
2 | B2 | no change |  | 
3 | B3 |  | decreases | 
4 | B4 |  | decreases | 
5 | B5 | increases |  | 
6 | B6 |  |  | other: PIPLC resistance of surface CD59 (GPI-inositol acylation) ([2]; control: WT HEK293 cells): increases
